Test results taken from patent publication US6107069A, “Recombinant kynurenine-3-hydroxylase enzyme and process for its preparation” (priority 1996, dated 2000).

Columns and labels:
[1] = Rat kyn-3-OHase activity expressed in X. laevis oocytes (conversion of L-kyn to 3-OH-Kyn); type: biochemical
Description: Individual oocytes of stages were obtained by gentle agitation in ND solution plus 1-2mg/ml collagenase for 60-90 min. They were then maintained at 18° C. in ND solution enriched with 1.8 mM CaCl2 and 20 mg/l gentamycin. Oocytes of stages 5 and 6 were injected 24 hours later with 50 nl RNA or water (N. Dascal and I. Lotan 1992. Methods in Mol. Biol. 13: 205-225).
Oocytes were injected with a Drummond Nanoject microdispenser. To avoid accidental injection into the nucleus, the needle was inserted close to the equator or in the vegetal (light) half of the oocytes. 1-3 days after injection the oocytes were assayed for kyn-3-OHase.
Plasmid DNA was isolated by standard procedures (alkaline lysis followed by a purification on Qiagen resin; Kontron Zurich). Plasmids were linearized with Not I and used for in vitro synthesis and capping of cRNA using T7 RNA polymerase (Stratagene) and following the supplier's instructions. Initially the library was divided into 25 pools of ~2000 colonies; cRNA obtained transcribing the insert of each pool of colonies was injected in the oocytes and screened for the expressed kyn-3-Ohase activity (See Example 1c for the methods). The positive pool identified for its kyn-3-OHase expressed activity (175 pmoles/h/mg protein: about 30 fold higher than that induced by the injection of total kidney poly (A)^+ RNA) was then split into several sub-pools and assayed with the same procedure.
Xenopus l. oocytes were first injected with 25 ng of poly(A)^+ RNA isolated from rat kidney.
Increasing doses (range 0.1-25 ng) of cRNA, obtained from the positive clone, were injected into oocytes which were then tested for kyn-3-OHase activity in the presence of 100 mM of L-kyn. A linear dose-dependent effect was observed up to 5 ng cRNA/oocyte. At this dose the kyn-3-OHase activity was 35.7 nmoles/h/mg protein. No further increase of the activity was measured when higher cRNA doses were injected.

[2] = 5 steps purification from rat liver (Nisimoto 1975); cited from earlier work
[3] = purified from rat liver (Nisimoto 1975); cited from earlier work
[4] = Activity of recombinant kyn-3-OHase expressed in E. coli (conversion of L-kyn to 3-OH-Kyn); type: biochemical, human; settings: cells induced 2 h at 37° C. with 1 mM IPTG; 500 μM L-kyn, 1 hour at 37° C.
Description: Recombinant kyn-3-OHase activity measured in cells grown at 37° C. until the OD600 reached 0.6, induced for 2 hours at 37° C. adding 1 mM IPTG was about 10 nmol/h·mg protein, enzymatic activity of uninduced cells in the same conditions was less than 5% (homogenates incubated for 1 hour at 37° C. with 500 μM L-kyn; see Example 5c).

[5] = last round of library screening, cRNA-injected oocytes

B1: positive clone: cDNA clone encoding rat kyn-3-OHase, a deduced protein of 478 amino acid residues, expressed in Xenopus oocytes (protein)
chain: MASSDTEGKRVVVIGGGLVGALNACFLAKRNFQVDVYEAREDIRVANFMRGRSINLALSYRGRQALKAVGLEDQIVSKGVPMKARMIHSLSGKKSAIPYGNKSQYILSISREKLNKDLLTAVESYPNAKVHFGHKLSKCCPEEGILTMLGPNKVPRDITCDLIVGCDGAYSTVRAHLMKKPRFDYSQQYIPHGYMELTIPPKNGEYAMEPNCLHIWPRNAFMMIALPNMDKSFTCTLFMSFEEFEKLPTHSDVLDFFQKNFPDAIPLMGEQALMRDFFLLPAQPMISVKCSPFHLKSRCVLMGDAAHAIVPFFGQGMNAGFEDCLVFDELMDKFNNDLSVCLPEFSRFRIPDDHAISDLSMYNYIEMRAHVNSRWFLFQRLLDKFLHALMPSTFIPLYTMVAFTRIRYHEAVLRWHWQKKVINRGLFVLGSLVAIGSAYILVHHLSPRPLELLRSAWTGTSGHWNRSADISPRVPWSH
**Q.** Which “kyn-3-OHase activity, cRNA dose-response” value ([1]; 5 ng cRNA/oocyte, 100 mM of L-kyn) does the source give for B1 here?
**A.** The value was 35.7 nmoles/h/mg protein.

**Q.** What about the “activity vs that induced by injection of total rat kidney poly(A)+ RNA” value [1, 5] of the same molecule?
**A.** The value was “about 400 fold”.

**Q.** And the “kyn-3-OHase activity, single positive clone” value [1, 5]?
**A.** The value was 3747 pmoles/h/mg protein.

B2: kyn-3-OHase: kyn-3-OHase isolated from the mitochondrial outer membrane of rat liver, molecular weight of 200,000 Da (protein)
chain: B1 chain
**Q.** With B2 as the molecule, how does the “specific activity of purified enzyme” value [2] read?
**A.** The value was 140 nmol/min/mg.

**Q.** And the isoelectric point [3]?
**A.** Its isoelectric point is 5.4 pH.

B3: Recombinant kyn-3-OHase: human kynurenine-3-hydroxylase, deduced protein of 486 amino acid residues, expressed in E. coli (protein, UniProt O15229 1-486, looked up)
Kynurenine 3-monooxygenase: MDSSVIQRKKVAVIGGGLVGSLQACFLAKRNFQIDVYEAREDTRVATFTRGRSINLALSHRGRQALKAVGLEDQIVSQGIPMRARMIHSLSGKKSAIPYGTKSQYILSVSRENLNKDLLTAAEKYPNVKMHFNHRLLKCNPEEGMITVLGSDKVPKDVTCDLIVGCDGAYSTVRSHLMKKPRFDYSQQYIPHGYMELTIPPKNGDYAMEPNYLHIWPRNTFMMIALPNMNKSFTCTLFMPFEEFEKLLTSNDVVDFFQKYFPDAIPLIGEKLLVQDFFLLPAQPMISVKCSSFHFKSHCVLLGDAAHAIVPFFGQGMNAGFEDCLVFDELMDKFSNDLSLCLPVFSRLRIPDDHAISDLSMYNYIEMRAHVNSSWFIFQKNMERFLHAIMPSTFIPLYTMVTFSRIRYHEAVQRWHWQKKVINKGLFFLGSLIAISSTYLLIHYMSPRSFLRLRRPWNWIAHFRNTTCFPAKAVDSLEQISNLISR
**Q.** Which “Recombinant kyn-3-OHase activity” value [4] does the source give for B3 here?
**A.** The value was “about 10 nmol/h·mg protein”.
